Patent US7038112B2, “Fatty acid elongases” (Miami University, priority 1997, dated 2006)
Like-named read-outs stand apart in the source and are kept apart here.

Tests used:
[1] = In vitro fatty acid elongation assay with yeast microsomes, 18:0 acyl-CoA substrate; type: biochemical, Saccharomyces cerevisiae
Procedure: (§1) Transformed yeast cells were grown in the presence of either glucose or galactose (2% w/v) as described in Example 1. Cells were harvested by centrifugation at 5000×g for 10 min and washed with 10 ml ice cold isolation buffer (IB), which contains 80 mM Hepes-KOH, pH 7.2, 5 mM EGTA, 5 mM EDTA, 10 mM KC1, 320 mM sucrose and 2 mM DTT). Cells were then resuspended in enough IB to fill a 1.7 ml tube containing 700 μl of 0.5 μm glass beads and yeast microsomes were isolated from the cells essentially as described in Tillman, T. and Bell, R., J. Biol. Chem. 261:9144–9149 (1986). The microsomal membrane pellet was recovered by centrifugation at 252,000×g for 60 min. The pellet was rinsed by resuspending in 40 ml fresh IB and again recovered by centrifugation at 252000×g for 60 min. Microsomal pellets were resuspended in a minimal volume of IB, and the protein concentration adjusted to 2.5 μg μl^−1 by addition of IB containing 15% glycerol. Microsomes were frozen on dry ice and stored at −80° C. The protein concentration in microsomes was determined by the Bradford method (Bradford, 1976).
(§2) Fatty acid elongase activity was measured essentially as described in Hlousek-Radojcic, A. et al., Plant J. 8:803–809 (1995). Briefly, the standard elongation reaction mix contained 80 mM Hepes-KOH, pH 7.2, 20 mM MgCl2, 500 μM NADPH, 1 mM ATP, 100 μM malonyl-CoA, 10 μM CoA-SH and 15 μM radioactive acyl-CoA substrate. The radiolabeled substrate was either [1^−14C]18:1-CoA (50 uCi μmol^−1), [1^−14C]18:0-CoA (55 uCi μmol^−1), or [1^−14C]16:0-CoA (54 uCi μmol^−1). The reaction was initiated by the addition of yeast microsomes (5 μg protein) and the mixture incubated at 30° C. for the indicated period of time. The final reaction volume was 25 μl.
(§3) Methyl esters of the acyl-CoA elongation products were prepared as described in Example 1. Methyl esters were separated on reversed phase silica gel KC18 TLC plates (Whatman, […] thick), quantified by phosphorimaging, and analyzed on by ImageQuant software (Molecular Dynamics, Inc., Sunnyvale, Calif.). The detection limit for each product is about 0.001 nanomoles per min. per mg microsomal protein, depending on the phosphorimage exposure time.
(§4) Yeast cultures containing full-length EL1 in λYES and full-length EL2 in pYEUra3 were grown in the presence of galactose or glucose as described in Example 2. Microsomes were then prepared from each of the cultures and fatty acid elongation assays were carried out as described in Example 2.
(§5) In the first experiment, microsomes were prepared from galactose-induced cultures of EL1, EL2 and FAE1, and incubated with either [1-^14C] 18:0 acyl-CoA or [1-^14C] 18:1 acyl-CoA as substrate. The amounts of various reaction products synthesized after 30 minutes (min) were determined as described in Example 2.
In a second experiment, microsomes were prepared from galactose-induced and from glucose-repressed yeast cultures containing EL1 or EL2 coding sequences. The microsomal preparations were incubated with either 18:0 acyl-CoA or 18:1 acyl-CoA as substrate and the fatty acid reaction products determined as described above. […]

[2] = type: biochemical, Saccharomyces cerevisiae
Procedure: as §1, §2, §3, §4, §5
In a second experiment, microsomes were prepared from galactose-induced and from glucose-repressed yeast cultures containing EL1 or EL2 coding sequences. The microsomal preparations were incubated with either 18:0 acyl-CoA or 18:1 acyl-CoA as substrate and the fatty acid reaction products determined as described above.

[3] = In vitro fatty acid elongation assay with yeast microsomes, 16:0 acyl-CoA substrate; type: biochemical, Saccharomyces cerevisiae
Procedure: as §1, §2, §3

[4] = test system: Saccharomyces cerevisiae strain AB1380; assay: Fatty acid composition of yeast cells transformed with pYEUra3/FAE1; type: cell-based; settings: galactose-induced yeast containing the FAE1 coding sequence
Procedure: Yeast transformed with pYEUra3 having FAE1 operably linked to the GAL1 promoter were grown in the presence of galactose or glucose and were analyzed for the expression of FAE1. As a control, yeast transformed with pYEUra3 containing no insert were also assayed. Analysis of such control preparations yielded fatty acid compositions and fatty acid elongation rates similar to those of yeast transformed with pYEUra3/FAE1. and grown with glucose as the carbon source.
The fatty acid composition of yeast cells grown in the presence of galactose was compared to that of cells grown in the presence of glucose, to determine if VLCFA were found in the galactose-induced cells.
Transformed yeast cells were grown overnight in YPD media at 30° C. with vigorous shaking. One hundred μl of the overnight culture were used to inoculate 40 ml of complete minimal uracil dropout media (CM-Ura) supplemented with either glucose or galactose (2% w/v). Cultures were grown at 30° C. to an OD600 of approximately 1.3 to 1.5. Cells were harvested by centrifugation at 5000×g for 10 min. Total lipids were extracted from the cells with 2 volumes of 4N KOH in 100% methanol for 60 min. at 80° C. […] Methyl esters were analyzed on an HP 5890 series II gas chromatograph equipped with a 5771MSD and 7673 auto injector (Hewlett-Packard, Cincinnati, Ohio.). […]

[5] = 18:0-CoA substrate, galactose-induced, 30 min, first experiment
[6] = 18:1-CoA substrate, galactose-induced, 30 min, first experiment
[7] = microsomes from galactose-induced cells

B1: FAE1: Known Arabidopsis FAE1 elongase β-ketoacyl synthase expressed in yeast, used as comparator (protein, UniProt Q38860 1-506, looked up)
3-ketoacyl-CoA synthase 18: MTSVNVKLLYRYVLTNFFNLCLFPLTAFLAGKASRLTINDLHNFLSYLQHNLITVTLLFAFTVFGLVLYIVTRPNPVYLVDYSCYLPPPHLKVSVSKVMDIFYQIRKADTSSRNVACDDPSSLDFLRKIQERSGLGDETYSPEGLIHVPPRKTFAASREETEKVIIGALENLFENTKVNPREIGILVVNSSMFNPTPSLSAMVVNTFKLRSNIKSFNLGGMGCSAGVIAIDLAKDLLHVHKNTYALVVSTENITQGIYAGENRSMMVSNCLFRVGGAAILLSNKSGDRRRSKYKLVHTVRTHTGADDKSFRCVQQEDDESGKIGVCLSKDITNVAGTTLTKNIATLGPLILPLSEKFLFFATFVAKKLLKDKIKHYYVPDFKLAVDHFCIHAGGRAVIDELEKNLGLSPIDVEASRSTLHRFGNTSSSSIWYELAYIEAKGRMKKGNKAWQIALGSGFKCNSAVWVALRNVKASANSPWQHCIDRYPVKIDSDLSKSKTHVQNGRS
- (%) 20:0 acyl-CoA product [1, 5]: 64.3%
- (%) 22:0 acyl-CoA product [1, 5]: 18.6%
- (%) 24:0 acyl-CoA product [1, 5]: 10.7%
- (%) 26:0 acyl-CoA product [1, 5]: 6.3%
- (%) Total acyl-CoA products [1, 5]: 100.0%
- Rate, 20:0 acyl-CoA product [1, 5]: 0.369 Nanomoles/minute/mg of microsomal protein
- Rate, 22:0 acyl-CoA product [1, 5]: 0.113 Nanomoles/minute/mg of microsomal protein
- Rate, 24:0 acyl-CoA product [1, 5]: 0.065 Nanomoles/minute/mg of microsomal protein
- Rate, 26:0 acyl-CoA product [1, 5]: 0.038 Nanomoles/minute/mg of microsomal protein
- Rate, Total acyl-CoA products [1, 5]: 0.585 Nanomoles/minute/mg of microsomal protein
- synthesis of 20:0 CoA from the 18:0 CoA substrate ([1]; microsomes from induced yeast): 5.1 nmol mg protein^−1
- increase in 18:1 CoA elongation, microsomes from induced vs uninduced cells [2]: about 18 fold
- (%) 20:1 acyl-CoA product [2, 6]: 84.6%
- (%) 22:1 acyl-CoA product [2, 6]: 15.4%
- (%) 24:1 acyl-CoA product [2, 6]: 0.0%
- (%) 26:1 acyl-CoA product [2, 6]: 0.0%
- (%) Total acyl-CoA products [2, 6]: 100.0%
- Rate, 20:1 acyl-CoA product [2, 6]: 1.131 Nanomoles/minute/mg of microsomal protein
- Rate, 22:1 acyl-CoA product [2, 6]: 0.206 Nanomoles/minute/mg of microsomal protein
- Rate, 24:1 acyl-CoA product [2, 6]: 0.0 Nanomoles/minute/mg of microsomal protein
- Rate, 26:1 acyl-CoA product [2, 6]: 0.0 Nanomoles/minute/mg of microsomal protein
- Rate, Total acyl-CoA products [2, 6]: 1.337 Nanomoles/minute/mg of microsomal protein
- rate of elongation of oleoyl-CoA relative to rate of elongation of 16:0-CoA [2, 7]: about 2 fold
- rate of elongation of oleoyl-CoA relative to rate of elongation of 18:0-CoA [2, 7]: ~3 fold
- FAE1 elongase KAS activity, difference in 16:0 elongation rates between induced and uninduced microsomes ([3]; induced minus uninduced): 5.7 nmol mg protein^−1
- 16:0-CoA elongation by microsomes from induced cells, higher than uninduced cells ([3]; induced vs uninduced): more than 50%
- total rate of elongation of [14C]16:0-CoA ([3]; microsomes from induced cells, at 30 min): 15.8 nmol mg protein^−1
- synthesis of 20:0 CoA from the 16:0 CoA substrate ([3]; microsomes from induced yeast): 4.2 nmol mg protein^−1
- very long chain fatty acids in transformed yeast cells [4]: appearance of both 20:1 and 22:1 acyl-CoA products
